These are literature values, as cited in PMC6526119.

By pKd is commonly meant −log10 of the Kd, conventionally taken in molar units.

The target of this data set is Hsp90 (Saccharomyces cerevisiae) (UniProt P02829).

pKd: −log10 of the molar value.

Take Hsp90 (from UniProt P02829): the pKd was 7.22.
